Results on 14 molecules are retold here after US20160244525A1 (Genentech, published 2016).

For experiment [1], the target named is T1, hKLB.
T1 construct: also called human beta-Klotho on 293 cells
The experiment can be described thus: FACS on 293 cells expressing hKLB, antibody at 0.8 ug/ml.

The target in experiment [2] is T2, FGFR3-IIIc (human, UniProt P22607 23-375, limits assumed).
T2 construct: also called human FGFR3-IIIc
T2 sequence: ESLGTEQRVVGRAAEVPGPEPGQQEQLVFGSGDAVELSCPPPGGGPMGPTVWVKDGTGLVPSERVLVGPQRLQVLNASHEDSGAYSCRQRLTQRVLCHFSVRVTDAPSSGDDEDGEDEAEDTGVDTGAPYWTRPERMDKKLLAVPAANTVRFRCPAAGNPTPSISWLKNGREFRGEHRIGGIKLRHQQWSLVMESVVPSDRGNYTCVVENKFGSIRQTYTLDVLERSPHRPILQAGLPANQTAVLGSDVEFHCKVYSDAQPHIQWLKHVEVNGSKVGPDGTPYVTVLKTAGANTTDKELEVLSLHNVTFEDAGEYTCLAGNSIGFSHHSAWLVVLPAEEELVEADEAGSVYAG
Nature of the experiment: surface plasmon resonance (Biacore). (In general: Surface plasmon resonance follows binding to a sensor surface in real time, without labels.)

Experiment [3] addresses T3, FGFR1-IIIb (human, UniProt P11362-19 22-376, limits assumed).
T3 construct: Soluble FGFR antigen in SPR
T3 sequence (looked up): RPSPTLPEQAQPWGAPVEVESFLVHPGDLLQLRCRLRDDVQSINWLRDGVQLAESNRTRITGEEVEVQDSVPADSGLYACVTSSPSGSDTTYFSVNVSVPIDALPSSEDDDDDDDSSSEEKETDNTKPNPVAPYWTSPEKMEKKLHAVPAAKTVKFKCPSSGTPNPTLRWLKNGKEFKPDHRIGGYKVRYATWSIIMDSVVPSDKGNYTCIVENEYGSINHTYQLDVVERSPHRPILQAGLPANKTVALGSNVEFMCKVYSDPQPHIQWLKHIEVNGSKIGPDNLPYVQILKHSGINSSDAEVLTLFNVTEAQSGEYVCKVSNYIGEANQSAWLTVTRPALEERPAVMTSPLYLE
The experiment can be described thus: SPR (Biacore T100), IgG captured by anti-human Fc, FGFR flowed.
Method: (§1) A saturated amount of anti-human Fc monoclonal antibody was immobilized onto a CM5 biosensor chip by following the product instructions. […] FGFR antigens of various concentrations were injected at a flow rate 30 μL/min. After each binding cycle, flow cells were regenerated using 3M MgCl₂. Kinetic analyses were performed using the T100 evaluation software to obtain the kinetic and affinity constants.

In experiment [4] the target is T4, FGFR2-IIIc (human, UniProt P21802 22-377).
T4 construct: also called human FGFR2-IIIc; FGFR2-IIIc-His
Described as above.
Method: as §1

The target of experiment [5] is T2, FGFR3-IIIc. The experiment is described as above.
Method: as §1
Experiment [6] concerns the target T2, FGFR3-IIIc. Nature of the experiment: blocking ELISA: FGFR3-IIIc-Fc captured on an anti-human Fc plate, antibody titrated, FGF-1 (with heparin) is the blocked ligand, bound FGF-1 read as OD450. Background: ELISA stands for enzyme-linked immunosorbent assay.
Method: The plate was washed 5 times before being added with the antibody and FGF ligand mixtures, which was prepared as 49 μL 100 ng/mL FGF ligand, 1 μL 25 mg/mL Heparin (Sigma-Aldrich) and 50 μL antibody dilutions. After shaking at RT for 2 h, the plate was washed 5 times. Bound ligand was detected by subsequent incubations at RT with 0.5 μg/mL biotinylated anti-FGF antibodies (R&D Biosystems) for 0.5 h, 1:2,500-diluted Streptavidin-HRP (Invitrogen) for 0.5 h and the TMB substrate until enough color development.
The target of experiment [7] is T4, FGFR2-IIIc. Nature of the experiment: SPR.
Method: as §1
(§2) 1.3 variants were determined by capturing FGFR4-Fc and flowing the antibody Fab fragments (Table 12).
The target in experiment [8] is T2, FGFR3-IIIc. The experiment can be described thus: SPR.
Method: as §1, §2

T4 sequence (P21802 22-377 limits assumed): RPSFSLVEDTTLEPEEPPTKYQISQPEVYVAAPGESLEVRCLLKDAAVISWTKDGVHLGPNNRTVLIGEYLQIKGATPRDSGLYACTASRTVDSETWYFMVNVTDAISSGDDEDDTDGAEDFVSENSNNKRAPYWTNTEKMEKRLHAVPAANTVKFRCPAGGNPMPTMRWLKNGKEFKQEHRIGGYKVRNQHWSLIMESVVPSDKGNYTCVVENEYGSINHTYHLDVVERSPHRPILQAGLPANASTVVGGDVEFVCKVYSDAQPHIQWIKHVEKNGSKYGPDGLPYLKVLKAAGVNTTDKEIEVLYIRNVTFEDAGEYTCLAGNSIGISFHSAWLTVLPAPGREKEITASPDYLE
T1 sequence (chain, as listed by the source limits assumed): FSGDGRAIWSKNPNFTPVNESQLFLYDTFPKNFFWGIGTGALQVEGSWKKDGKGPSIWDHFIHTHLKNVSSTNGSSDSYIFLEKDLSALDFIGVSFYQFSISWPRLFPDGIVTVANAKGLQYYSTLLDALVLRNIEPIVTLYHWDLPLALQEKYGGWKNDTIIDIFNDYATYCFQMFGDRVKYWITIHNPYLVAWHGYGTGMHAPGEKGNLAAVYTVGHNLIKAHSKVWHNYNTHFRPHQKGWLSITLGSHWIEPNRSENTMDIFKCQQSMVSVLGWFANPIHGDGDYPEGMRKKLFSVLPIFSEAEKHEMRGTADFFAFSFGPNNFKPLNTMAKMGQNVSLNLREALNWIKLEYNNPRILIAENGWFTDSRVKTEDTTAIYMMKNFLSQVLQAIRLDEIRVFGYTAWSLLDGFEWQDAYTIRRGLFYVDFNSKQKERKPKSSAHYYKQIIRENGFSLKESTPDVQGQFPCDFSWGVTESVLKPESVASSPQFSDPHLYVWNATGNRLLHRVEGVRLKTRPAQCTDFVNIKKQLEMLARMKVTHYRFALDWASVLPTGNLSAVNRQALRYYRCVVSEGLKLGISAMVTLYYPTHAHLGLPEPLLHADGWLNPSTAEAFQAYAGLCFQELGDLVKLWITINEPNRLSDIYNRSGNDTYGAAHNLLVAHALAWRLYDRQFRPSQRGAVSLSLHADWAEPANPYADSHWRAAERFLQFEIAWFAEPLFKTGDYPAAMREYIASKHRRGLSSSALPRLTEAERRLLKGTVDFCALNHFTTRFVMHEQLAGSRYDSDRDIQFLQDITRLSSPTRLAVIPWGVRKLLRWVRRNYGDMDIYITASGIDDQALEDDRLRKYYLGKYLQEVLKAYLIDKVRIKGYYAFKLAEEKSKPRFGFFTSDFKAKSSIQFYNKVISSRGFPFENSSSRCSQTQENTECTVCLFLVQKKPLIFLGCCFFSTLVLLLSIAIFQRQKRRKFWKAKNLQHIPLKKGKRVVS

B1: 25F7 (antibody, V domains shown)
VH: EVQLQQSGAELLKPGASVRLSCTASGFNIQDTFTHWVRQRPEQGLEWIGRIDPSNGNTKYDPKFQGKAKILADTSSNTAYLQLIGLTSEDTAVYYCASRALGNGYAMDYWGQGTSVTVSS
VL: DIQMTQSSSYLSVSLGGRVTITCKASDHINNWLAWYQQKPGNAPRLLISGASNLETGIPSRFSGSGSGKDYTLTITSLQTEDVATYYCQQYWNTPFTFGSGTKLEIK
Consider B1, for which the binding result in experiment [1] is “binds”.

B2: 11D4 (antibody, V domains shown)
VH: QVQVKESGPGLVAPSQSLSITCTVSGFSLTNYGVSWIRQPPGKGLEWLGVIWGDGSINYHSALISRLTITKDNSKSQVFLKLNSLEADDTATYYCAKTHDWFDYWGQGTLVTVSA
VL: DIQMTQTPSSLSASLGDRVTINCRASQDISNYFNWYQQKPNGTIKLLIYYTSRLQSGVPSRFSGSGSGTDYSLTISNLEQEDKATYFCHQVRTLPWTFGGGTKLEIK
As for B2, the binding result in experiment [1] was “binds”.

B3: 14C6 (antibody, V domains shown)
VH: QIQLQQSGAELMKPGASVRMSCKASGYTFSSYWIEWVKQRSGHGLEWIGEIFPGGGSTIYNENFRDKATFTADTSSNTAYMQLSSLTSEDSAVYFCARRGYYDAAWFDYWGQGTLVTVSA
VL: QIVLTQSPAIMSASPGERVTLTCSASSSLSSSYLYWYQQKPGSSPKLWIYGASNLASGVPGRFSGSGSGTSYSLTISSMEAEDAASYFCHQWSSYPLTFGSGTKLELK
As for B3, the binding result in experiment [1] is recorded as “binds”.

B4: 2B1.1.2 (antibody, V domains shown)
VH: EVQLVESGGGLVQPGGSLRLSCAASGFTFTSTGISWVRQAPGKGLEWVGRYWAWDGSTNYADSVKGRFTISADTSKNTAYLQMNSLRAEDTAVYYCARTYGIYDTYDNYTEYVMDYWGQGTLVTVSS
VL: DIQMTQSPSSLSASVGDRVTITCRASQDVDTSLAWYKQKPGKAPKLLIYSASFLYSGVPSRFSGSGSGTDFTLTISSLQPEDFATYYCQQSTGHPQTFGQGTKVEIKR
As a reminder, the Kd is the free concentration of one partner at which half of the binding sites on the other are occupied at equilibrium, for simple one-to-one binding. Read a low Kd as tighter binding. In experiment [2], B4 gave a dissociation constant Kd of 90.8 pM.

B5: 2B.1.3.10 (antibody, human IgG1, kappa, V domains shown)
VH: EVQLVESGGGLVQPGGSLRLSCAASGFPFTSQGISWVRQAPGKGLEWVGRTHLGDGSTNYADSVKGRFTISADTSKNTAYLQMNSLRAEDTAVYYCARTYGIYDTYDKYTEYVMDYWGQGTLVTVSS
VL: DIQMTQSPSSLSASVGDRVTITCRASQDVDTSLAWYKQKPGKAPKLLIYSASFLYSGVPSRFSGSGSGTDFTLTISSLQPEDFATYYCQQSTGHPQTFGQGTKVEIKR
notes: Full IgG1/kappa chains; also called Mab 2B.1.3.10
Take B5: in experiment [3], the binding result is given as “no binding (tested: 500 nM)”. Also, the figures for the dissociation constant Kd in experiment [4] and in experiment [5] were 1100 pM and 250 pM, respectively. Further, the “IC50 (read off the curve)” value in experiment [6] is 2000 to 3000 pM.

B6: 2B.1.3.12 (antibody, human IgG1, kappa, V domains shown)
VH: EVQLVESGGGLVQPGGSLRLSCAASGFPFTSTGISWVRQAPGKGLEWVGRTHLGDGSTNYADSVKGRFTISADTSKNTAYLQMNSLRAEDTAVYYCARTYGIYDTYDMYTEYVMDYWGQGTLVTVSS
VL: DIQMTQSPSSLSASVGDRVTITCRASQDVDTSLAWYKQKPGKAPKLLIYSASFLYSGVPSRFSGSGSGTDFTLTISSLQPEDFATYYCQQSTGHPQTFGQGTKVEIKR
notes: Full IgG1/kappa chains; also called Mab 2B.1.3.12
With B6, the Kd is 6100 pM in experiment [7]; 720 pM in experiment [8]; 280 pM in experiment [2]; 6100 pM in experiment [4]; 720 pM in experiment [5]. Besides, in experiment [3], the binding result was “no binding (tested: 500 nM)”. Also, in experiment [6], the “IC50 (read off the curve)” value lay in the range of 2000 to 3000 pM.

B7: 2B1.1.4 (antibody, V domains shown)
VH: EVQLVESGGGLVQPGGSLRLSCAASGFTFTSTGISWVRQAPGKGLEWVGRYWAWDGSTNYADSVKGRFTISADTSKNTAYLQMNSLRAEDTAVYYCARTYGIYDIYGGYTEYVMDYWGQGTLVTVSS
VL: DIQMTQSPSSLSASVGDRVTITCRASQDVDTSLAWYKQKPGKAPKLLIYSASFLYSGVPSRFSGSGSGTDFTLTISSLQPEDFATYYCQQSTGHPQTFGQGTKVEIKR
Take B7: in experiment [2], binding was put at a Kd of 153 pM.

B8: 2B1.1.8 (antibody, V domains shown)
VH: EVQLVESGGGLVQPGGSLRLSCAASGFPFTSLGISWVRQAPGKGLEWVGRYWAWDGSTNYADSVKGRFTISADTSKNTAYLQMNSLRAEDTAVYYCARTYGIYDIYEKYTEYVMDYWGQGTLVTVSS
VL: DIQMTQSPSSLSASVGDRVTITCRASQDVDTSLAWYKQKPGKAPKLLIYSASFLYSGVPSRFSGSGSGTDFTLTISSLQPEDFATYYCQQSTGHPQTFGQGTKVEIKR
The molecule B8 gave an equilibrium dissociation constant (Kd) in experiment [2] of 112 pM. This Kd and that of the molecule before are within 1.5-fold of each other.

B9: 2B1.1.12 (antibody, V domains shown)
VH: EVQLVESGGGLVQPGGSLRLSCAASGFPFTSTGISWVRQAPGKGLEWVGRYWAWDGSTNYADSVKGRFTISADTSKNTAYLQMNSLRAEDTAVYYCARTYGIYDTYDMYTEYVMDYWGQGTLVTVSS
VL: DIQMTQSPSSLSASVGDRVTITCRASQDVDTSLAWYKQKPGKAPKLLIYSASFLYSGVPSRFSGSGSGTDFTLTISSLQPEDFATYYCQQSTGHPQTFGQGTKVEIKR
The molecule B9 displayed an equilibrium dissociation constant (Kd) in experiment [2] of 142 pM.

B10: 2B1.1.10 (antibody, V domains shown)
VH: EVQLVESGGGLVQPGGSLRLSCAASGFPFTSQGISWVRQAPGKGLEWVGRYWAWDGSTNYADSVKGRFTISADTSKNTAYLQMNSLRAEDTAVYYCARTYGIYDTYDKYTEYVMDYWGQGTLVTVSS
VL: DIQMTQSPSSLSASVGDRVTITCRASQDVDTSLAWYKQKPGKAPKLLIYSASFLYSGVPSRFSGSGSGTDFTLTISSLQPEDFATYYCQQSTGHPQTFGQGTKVEIKR
In experiment [2], B10 returned a Kd of 198 pM.

B11: 2B.1.1.6 (antibody, human IgG1, kappa, V domains shown)
VH: EVQLVESGGGLVQPGGSLRLSCAASGFTFTSTGISWVRQAPGKGLEWVGRYWAWDGSTNYADSVKGRFTISADTSKNTAYLQMNSLRAEDTAVYYCARTYGIYDTYDEYTEYVMDYWGQGTLVTVSS
VL: DIQMTQSPSSLSASVGDRVTITCRASQDVDTSLAWYKQKPGKAPKLLIYSASFLYSGVPSRFSGSGSGTDFTLTISSLQPEDFATYYCQQSTGHPQTFGQGTKVEIKR
notes: Full IgG1/kappa chains
The molecule B11 gave a Kd in experiment [2] of 79.6 pM.

B12: 8H7 (antibody, V domains shown)
VH: QVQLQQPGAEIVKPGASVRLSCKASGYSFTSYWIHWVKQRPGQGLEWIGEIDPSVSNSNYNQKFKGKATLTADKSSSTAYMQLSGLTSEDSAVYFCVRLGVMVYGSSPFWFAYWGQGTLVTVSA
VL: DIVMTQSQKFMSTSVGDRVSITCKASQFVSDAVAWYQQKPGQSPKLLICSASYRYTGVPDRFTGSGSGTDFTFTISSVRTEDLAVYYCQQHYIVPYTFGGGTTLEIE
As to B12, in experiment [1], the binding result is on record as “binds”.

B13: 5F8 (antibody, V domains shown)
VH: EVQLQQSGTELVRPGASVKLSCTSSDFNIKDTYIHWVKQRPEQGLDWLGRIDPANGNTKYDPKFQGKAAMTSDTSSNTAYLRLSSLTSEDTAVYYCASSGNYGAMDYWGQGTSVTVSS
VL: ESVLTQSPALMSASLGEKVTMTCRASSSVNHMYWYQQKSDASPKLWIYYTSTLAPGVPARFSGSGSGNSYSLTISSMEGEDAATYYCQQFTISPSMYTFGGGTKLEIK
In the case of B13, the binding result in experiment [1] was “binds”.

B14: 24A1 (antibody, V domains shown)
VH: QVQLKQSGAELVRPGTSVTLSCKASGYTFTDYEMHWMKQTPVYGLEWIGAIWPENADSVYNQKFKGKVTLTADKSSSTAYMDLRSLTSEDSAVYYCTREGGNYWGQGTTLTVSS
VL: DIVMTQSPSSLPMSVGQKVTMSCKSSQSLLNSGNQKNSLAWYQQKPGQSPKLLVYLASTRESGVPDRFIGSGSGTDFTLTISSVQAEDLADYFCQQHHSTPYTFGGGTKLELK
Take B14: the binding result in experiment [1] was “binds”.
